Substrate in the data set: CCCCC/C=C\C/C(=C\CCCCCCCC(=O)O[C@@H]1O[C@H](C(=O)O)[C@@H](O)[C@H](O)[C@H]1O)[N+](=O)[O-]
Put plainly: TP_TRANSPORTER: vesicle uptake in MRP1-expressing membrane vesicles. The class given is functional, cell membranes, MCF7/MRP1-10.

B1: Multidrug resistance-associated protein 1 (Homo sapiens) (protein)
chain: MALRGFCSADGSDPLWDWNVTWNTSNPDFTKCFQNTVLVWVPCFYLWACFPFYFLYLSRHDRGYIQMTPLNKTKTALGFLLWIVCWADLFYSFWERSRGIFLAPVFLVSPTLLGITMLLATFLIQLERRKGVQSSGIMLTFWLVALVCALAILRSKIMTALKEDAQVDLFRDITFYVYFSLLLIQLVLSCFSDRSPLFSETIHDPNPCPESSASFLSRITFWWITGLIVRGYRQPLEGSDLWSLNKEDTSEQVVPVLVKNWKKECAKTRKQPVKVVYSSKDPAQPKESSKVDANEEVEALIVKSPQKEWNPSLFKVLYKTFGPYFLMSFFFKAIHDLMMFSGPQILKLLIKFVNDTKAPDWQGYFYTVLLFVTACLQTLVLHQYFHICFVSGMRIKTAVIGAVYRKALVITNSARKSSTVGEIVNLMSVDAQRFMDLATYINMIWSAPLQVILALYLLWLNLGPSVLAGVAVMVLMVPVNAVMAMKTKTYQVAHMKSKDNRIKLMNEILNGIKVLKLYAWELAFKDKVLAIRQEELKVLKKSAYLSAVGTFTWVCTPFLVALCTFAVYVTIDENNILDAQTAFVSLALFNILRFPLNILPMVISSIVQASVSLKRLRIFLSHEELEPDSIERRPVKDGGGTNSITVRNATFTWARSDPPTLNGITFSIPEGALVAVVGQVGCGKSSLLSALLAEMDKVEGHVAIKGSVAYVPQQAWIQNDSLRENILFGCQLEEPYYRSVIQACALLPDLEILPSGDRTEIGEKGVNLSGGQKQRVSLARAVYSNADIYLFDDPLSAVDAHVGKHIFENVIGPKGMLKNKTRILVTHSMSYLPQVDVIIVMSGGKISEMGSYQELLARDGAFAEFLRTYASTEQEQDAEENGVTGVSGPGKEAKQMENGMLVTDSAGKQLQRQLSSSSSYSGDISRHHNSTAELQKAEAKKEETWKLMEADKAQTGQVKLSVYWDYMKAIGLFISFLSIFLFMCNHVSALASNYWLSLWTDDPIVNGTQEHTKVRLSVYGALGISQGIAVFGYSMAVSIGGILASRCLHVDLLHSILRSPMSFFERTPSGNLVNRFSKELDTVDSMIPEVIKMFMGSLFNVIGACIVILLATPIAAIIIPPLGLIYFFVQRFYVASSRQLKRLESVSRSPVYSHFNETLLGVSVIRAFEEQERFIHQSDLKVDENQKAYYPSIVANRWLAVRLECVGNCIVLFAALFAVISRHSLSAGLVGLSVSYSLQVTTYLNWLVRMSSEMETNIVAVERLKEYSETEKEAPWQIQETAPPSSWPQVGRVEFRNYCLRYREDLDFVLRHINVTINGGEKVGIVGRTGAGKSSLTLGLFRINESAEGEIIIDGINIAKIGLHDLRFKITIIPQDPVLFSGSLRMNLDPFSQYSDEEVWTSLELAHLKDFVSALPDKLDHECAEGGENLSVGQRQLVCLARALLRKTKILVLDEATAAVDLETDDLIQSTIRTQFEDCTVLTIAHRLNTIMDYTRVIVLDKGEIQEYGAPSDLLQQRGLFYSMAKDAGLV
For the protein B1, the Michaelis-Menten constant (Km) (as a rule, the substrate concentration at which the rate is half of its maximum) came to 0.75 µM.

(Values after ChEMBL document CHEMBL2074211, “Modulation of nitrated lipid signaling by multidrug resistance protein 1 (MRP1): glutathione conjugation and MRP1-mediated efflux inhibit nitrolinoleic acid-induced, PPARgamma-dependent transcription activation” (Biochemistry, 2006).)
